The values that follow are results of earlier work, collected in publication PMC8438204, “Unraveling the Thermodynamics of Ultra-tight Binding of Intrinsically Disordered Proteins” (Frontiers in Molecular Biosciences, 2021).

In this data set the target is prothymosin α (Homo sapiens) (UniProt P06454).
prothymosin α (Homo sapiens), sequence (P06454 2-111): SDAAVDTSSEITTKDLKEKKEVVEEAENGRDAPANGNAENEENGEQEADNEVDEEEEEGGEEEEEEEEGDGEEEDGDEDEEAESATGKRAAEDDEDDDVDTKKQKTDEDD

histone H1, sequence (P07305 2-194): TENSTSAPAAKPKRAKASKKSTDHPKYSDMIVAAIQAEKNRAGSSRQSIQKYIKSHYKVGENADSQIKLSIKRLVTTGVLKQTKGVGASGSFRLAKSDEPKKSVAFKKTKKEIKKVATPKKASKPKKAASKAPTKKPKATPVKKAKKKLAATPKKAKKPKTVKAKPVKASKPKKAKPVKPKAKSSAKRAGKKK

In the case of histone H1 (from UniProt P07305), the Kd was 2 pM.
